Results taken from patent US20240150455A1 (SHANGHAI GENBASE BIOTECHNOLOGY, published 2024).

Key:
human CLDN9 (Claudin 9) = target: T1, human CLDN9 (Claudin 9) (human, UniProt O95484 1-217); test: flow cytometry on CHOS-CLDN9 cells
T1 construct: whole, on cells; Over-expressed on CHOS cells by lentiviral infection; also called CHOS-CLDN9
T1 sequence (looked up): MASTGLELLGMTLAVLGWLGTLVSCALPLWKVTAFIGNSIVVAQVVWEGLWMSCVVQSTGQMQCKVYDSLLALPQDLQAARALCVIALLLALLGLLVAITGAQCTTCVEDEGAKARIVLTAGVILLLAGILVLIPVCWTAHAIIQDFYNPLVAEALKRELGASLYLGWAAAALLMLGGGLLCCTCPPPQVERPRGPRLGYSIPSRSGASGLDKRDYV
Description: (§1) Flow cytometric evaluation of mouse antibody binding to CLDN3/4/6/9: 500,000 CLDN6 expressing cells (CHOS-hCLDN6, CHOS-CLDN3, CHOS-CLDN4, CHOS-CLDN9) were placed in FACS buffer (PBS+2% FBS)/well, added with the mouse antibody to be tested and incubated at 4° C. for 1 hour. The supernatant was removed by centrifugation, washing was performed twice with FACS buffer, secondary antibody (DyLight488 goat anti-mouse IgG, Abcam, Cat. No.: ab97015) was added and incubated at 4° C. for 0.5 hours. After staining, the supernatant was removed by centrifugation, washing was performed twice with FACS buffer, the cells were resuspended with FACS buffer, and then loaded on the machine for reading. A flow cytometer (BD company, model CantoII) was used to measure and read the experimental cells. During the measurement, the cell position was first delineated according to FCS and SSC, and then the fluorescence channel corresponding to the second antibody and SSC were selected to analyze the cells.

human CLDN6 (Claudin 6) [1] = target: T2, human CLDN6 (Claudin 6) (human, UniProt P56747 1-220); test: flow cytometry on CHOS-hCLDN6 cells
T2 construct: whole, on cells; Over-expressed on CHOS cells (CHOS-hCLDN6) or naturally expressed on the tumor cells OV90, NEC8, NTERA2 and Bewo; also called hCLDN6; CHOS-hCLDN6
T2 sequence (looked up): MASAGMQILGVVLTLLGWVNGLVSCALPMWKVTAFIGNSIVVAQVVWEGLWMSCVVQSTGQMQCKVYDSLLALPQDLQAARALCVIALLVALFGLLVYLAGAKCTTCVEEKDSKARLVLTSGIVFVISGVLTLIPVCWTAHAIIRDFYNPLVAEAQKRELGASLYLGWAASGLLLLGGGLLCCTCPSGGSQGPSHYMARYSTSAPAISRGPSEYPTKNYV
Description: as §1

human CLDN6 (Claudin 6) [2] = target: T2, human CLDN6 (Claudin 6); test: binding to CLDN6-expressing cells (FIG. 6: NEC8, Bewo)
human CLDN6 (Claudin 6) [3] = target: T2, human CLDN6 (Claudin 6); test: cell-based or functional assay
human CLDN6 (Claudin 6) [4] = target: T2, human CLDN6 (Claudin 6); test: flow cytometry on Bewo tumor cells naturally expressing human CLDN6
Description: (§2) 500,000 CLDN6-naturally expressing tumor cells (0V90, ATCC; NEC8, JCRB; NTERA2, Nanjing Cobioer Biosciences Co., Ltd; Bewo, Nanjing Cobioer Biosciences Co., Ltd) were placed in FACS buffer for later use, in which round-bottom low-adsorption 96-well plates were used. Antibody samples were serially diluted with FACS buffer. The diluted antibody was added to the cell plates, and FACS buffer was added to the corresponding negative control wells, and incubation was performed at 4° C. for 1 hour. […] After staining, the supernatant was removed by centrifugation, washing was performed twice with FACS buffer, and the cells were resuspended by adding FACS buffer to each well, and then loaded on a machine for reading. A flow cytometer (BD Company, model CantoII) was used to measure and read the cells in the experimental plate. During the measurement, the position of cells was first delineated according to FCS and SSC, and then the fluorescence channel corresponding to the second antibody and SSC were selected to analyze the cells. GraphPad was used for data analysis, the logarithm of antibody concentration was used on the abscissa, and the average fluorescence intensity value was used on the ordinate. […]

human CLDN6 (Claudin 6) [5] = target: T2, human CLDN6 (Claudin 6); test: flow cytometry on NEC8 tumor cells naturally expressing human CLDN6
Description: as §2

human CLDN6 (Claudin 6) [6] = target: T2, human CLDN6 (Claudin 6); test: flow cytometry on OV90 tumor cells naturally expressing human CLDN6
Description: as §2

human CLDN6 (Claudin 6) [7] = target: T2, human CLDN6 (Claudin 6); test: flow cytometry on NTERA2 tumor cells naturally expressing human CLDN6
Description: as §2

B1: anti-CLDN6 murine antibody 9H3 (antibody, V domains shown)
VH: EVQLVESGGDLVKPGGSLKLSCAASGFTFSIYGMSWVRQSPDRRLEWVATISRDGSYTYFPDSVKGRFTISRDNAKNTLYLQMSSLKSEDTAMYYCVRLGDNDRGYAMDYWGQGTSVTVSS
VL: DVLMTQTPLSLPVSLGDQASISCRSSQSVVHVNGNTYLEWYLQKPGQSPRLLIYKVSNRFPGVPDRFSGSGSGTDFTLRISRVEAEDLGVYYCFQGSHVPRTFGGGTNLEIK
notes: Mouse hybridoma antibody, detected with anti-mouse IgG; the murine constant regions are not
binding result (human CLDN9 (Claudin 9)): binds
binding result (human CLDN6 (Claudin 6) [1]): binds

B2: 9H3 hotspot mutant, LCDR1 NG mutated to NA and HCDR2 DG mutated to DA (antibody, V domains shown)
VH: EVQLVESGGDLVKPGGSLKLSCAASGFTFSIYGMSWVRQSPDRRLEWVATISRDASYTYFPDSVKGRFTISRDNAKNTLYLQMSSLKSEDTAMYYCVRLGDNDRGYAMDYWGQGTSVTVSS
VL: DVLMTQTPLSLPVSLGDQASISCRSSQSVVHVNANTYLEWYLQKPGQSPRLLIYKVSNRFPGVPDRFSGSGSGTDFTLRISRVEAEDLGVYYCFQGSHVPRTFGGGTNLEIK
notes: also called 9H3 antibody with a hotspot mutant
fold change of the ability to bind against the unmutated antibody (human CLDN6 (Claudin 6) [2]): ≤ 3 times

B3: 9H3 hotspot mutant, LCDR1 NG mutated to SG and HCDR2 DG mutated to DA (antibody, V domains shown)
VH: EVQLVESGGDLVKPGGSLKLSCAASGFTFSIYGMSWVRQSPDRRLEWVATISRDASYTYFPDSVKGRFTISRDNAKNTLYLQMSSLKSEDTAMYYCVRLGDNDRGYAMDYWGQGTSVTVSS
VL: DVLMTQTPLSLPVSLGDQASISCRSSQSVVHVSGNTYLEWYLQKPGQSPRLLIYKVSNRFPGVPDRFSGSGSGTDFTLRISRVEAEDLGVYYCFQGSHVPRTFGGGTNLEIK
notes: as for B2
fold change of the ability to bind against the unmutated antibody (human CLDN6 (Claudin 6) [2]): ≤ 3 times

B4: anti-CLDN6 murine antibody 15H2 (antibody, V domains shown)
VH: DVQLQESGPGLVKPSQSLSLTCSVTGYSITSGYYWNWIRQFPGNKLEWMGYISYDGSNNYNPSLKNRFSIIRDTSKNQFFLKFNSVTTEDTATYYCARGGYYFDYWGQGTTLTVSS
VL: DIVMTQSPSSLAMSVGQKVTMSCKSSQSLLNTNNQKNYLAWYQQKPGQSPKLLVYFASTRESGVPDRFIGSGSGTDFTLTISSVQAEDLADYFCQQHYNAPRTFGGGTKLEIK
notes: as for B1
binding result (human CLDN6 (Claudin 6) [1]): binds

B5: humanized antibody 7008-03 (antibody, human IgG1, kappa, V domains shown)
VH: EVQLVESGGGLVQPGGSLRLSCAASGFTFSIYGMSWVRQAPGKGLEWVATISRDASYTYFPDSVKGRFTISRDNAKNSLYLQMNSLRAEDTAVYYCVRLGDNDRGYAMDYWGQGTLVTVSS
VL: DVVMTQSPLSLPVTLGQPASISCRSSQSVVHVNANTYLEWYQQRPGQSPRLLIYKVSNRFPGVPDRFSGSGSGTDFTLKISRVEAEDVGVYYCFQGSHVPRTFGGGTKVEIKR
notes: Human IgG1 heavy chain constant region, human kappa light chain constant region
ADCC EC50, Bewo target cells, Jurkat-NFAT-Luc-CD16 effector reporter cells (human CLDN6 (Claudin 6) [3]): 0.21 µg/mL
ADCC EC50, NEC8 target cells, Jurkat-NFAT-Luc-CD16 effector reporter cells (human CLDN6 (Claudin 6) [3]): 0.071 µg/mL
ADCC EC50, NTERA2 target cells, Jurkat-NFAT-Luc-CD16 effector reporter cells (human CLDN6 (Claudin 6) [3]): 0.4 µg/mL
ADCC EC50, OV90 target cells, Jurkat-NFAT-Luc-CD16 effector reporter cells (human CLDN6 (Claudin 6) [3]): 0.16 µg/mL
EC50 (human CLDN6 (Claudin 6) [4]): 0.9 µg/mL
EC50 (human CLDN6 (Claudin 6) [5]): 0.91 µg/mL
EC50 (human CLDN6 (Claudin 6) [6]): 3.79 µg/mL
EC50 (human CLDN6 (Claudin 6) [7]): 1.02 µg/mL

B6: humanized antibody 7008-01 (antibody, human IgG1, kappa, V domains shown)
VH: QVQLQESGPGLVKPSETLSLTCTVSGYSITSGYYWNWIRQPPGKGLEWMGYISYSGSNNYNPSLKNRVTISRDTSKNQFSLKLSSVTAADTAVYYCARGGYYFDYWGQGTLVTVSS
VL: DIVMTQSPDSLAVSLGERATINCKSSQSLLNTNNQKNYLAWYQQKPGQPPKLLIYFASTRESGVPDRFSGSGSGTDFTLTISSLQAEDVAVYFCQQHYNAPRTFGGGTKVEIKR
notes: as for B5
ADCC EC50, Bewo target cells, Jurkat-NFAT-Luc-CD16 effector reporter cells (human CLDN6 (Claudin 6) [3]): 0.7 µg/mL
ADCC EC50, NEC8 target cells, Jurkat-NFAT-Luc-CD16 effector reporter cells (human CLDN6 (Claudin 6) [3]): 0.15 µg/mL
ADCC EC50, NTERA2 target cells, Jurkat-NFAT-Luc-CD16 effector reporter cells (human CLDN6 (Claudin 6) [3]): 0.55 µg/mL
ADCC EC50, OV90 target cells, Jurkat-NFAT-Luc-CD16 effector reporter cells (human CLDN6 (Claudin 6) [3]): 0.55 µg/mL
EC50 (human CLDN6 (Claudin 6) [4]): 1.06 µg/mL
EC50 (human CLDN6 (Claudin 6) [5]): 1.31 µg/mL
EC50 (human CLDN6 (Claudin 6) [6]): 2.85 µg/mL
EC50 (human CLDN6 (Claudin 6) [7]): 1.22 µg/mL
